To fix the notation:
B1: NNS6f47 (antibody)
chain 1: QVQLVESGGGLVQPGRSLRLSCAASGFTFSNAWMHWVRQAPGKGLEWVAQIKDKSNNYATYYAESVKGRFTISRDDSKNSIYLQMNSLKTEDTAVYYCRYVHYAAHFMWWGYYGVDAWGQGTTVTVSSASTKGPSVFPLAPSSKSTSGGTAALGCLVKDYFPEPVTVSWNSGALTSGVHTFPAVLQSSGLYSLSSVVTVPSSSLGTQTYICNVNHKPSNTKVDKKVEPKSCDKTHTCPPCPAPEAAGGPSVFLFPPKPKDTLMISRTPEVTCVVVDVSHEDPEVKFNWYVDGVEVHNAKTKPREEQYASTYRVVSVLTVLHQDWLNGKEYKCKVSNKALPAPIEKTISKAKGQPREPQVYTLPPSRCELTKNQVSLSCAVKGFYPSDIAVEWESNGQPENNYKTTPPVLDSDGSFFLVSKLTVDKSRWQQGNVFSCSVMHEALHNHYTQKSLSLSPDYKDDDDK
chain 2: EPKSSDKTHTCPPCPAPELLGGPSVFLFPPKPKDTLMISRTPEVTCVVVDVSHEDPEVKFNWYVDGVEVHNAKTKPREEQYNSTYRVVSVLTVLHQDWLNGKEYKCKVSNKALPAPIEKTISKAKGQPREPQVCTLPPSRDELTKNQVSLWCLVKGFYPSDIAVEWESNGQPENNYKTTPPVLDSDGSFFLYSKLTVDKSRWQQGNVFSCSVMHEALHNRYTQKSLSLSP
chain 3: DIVMTQSPLSLPVTPGEPASISCRSSQSLVHSNRNTYLHWYQQKPGQAPRLLIYKVSNRFSGVPDRFSGSGSGTDFTLKISRVEAEDVGVYYCGQGTQVPYTFGQGTKLEIKRTVAAPSVFIFPPSDEQLKSGTASVVCLLNNFYPREAKVQWKVDNALQSGNSQESVTEQDSKDSTYSLSSTLTLSKADYEKHKVYACEVTHQGLSSPVTKSFNRGEC
B2: NNS6f55 (antibody)
chain 1: QVQLVESGGGLVQPGRSLRLSCAASGFTFSNAWMHWVRQAPGKGLEWVAQIKDKSNNYATYYAESVKGRFTISRDDSKNSIYLQMNSLKTEDTAVYYCRYVHYAAAGRWLAYYGVDAWGQGTTVTVSSASTKGPSVFPLAPSSKSTSGGTAALGCLVKDYFPEPVTVSWNSGALTSGVHTFPAVLQSSGLYSLSSVVTVPSSSLGTQTYICNVNHKPSNTKVDKKVEPKSCDKTHTCPPCPAPEAAGGPSVFLFPPKPKDTLMISRTPEVTCVVVDVSHEDPEVKFNWYVDGVEVHNAKTKPREEQYASTYRVVSVLTVLHQDWLNGKEYKCKVSNKALPAPIEKTISKAKGQPREPQVYTLPPSRCELTKNQVSLSCAVKGFYPSDIAVEWESNGQPENNYKTTPPVLDSDGSFFLVSKLTVDKSRWQQGNVFSCSVMHEALHNHYTQKSLSLSPDYKDDDDK
chain 2: EPKSSDKTHTCPPCPAPELLGGPSVFLFPPKPKDTLMISRTPEVTCVVVDVSHEDPEVKFNWYVDGVEVHNAKTKPREEQYNSTYRVVSVLTVLHQDWLNGKEYKCKVSNKALPAPIEKTISKAKGQPREPQVCTLPPSRDELTKNQVSLWCLVKGFYPSDIAVEWESNGQPENNYKTTPPVLDSDGSFFLYSKLTVDKSRWQQGNVFSCSVMHEALHNRYTQKSLSLSP
chain 3: DIVMTQSPLSLPVTPGEPASISCRSSQSLVHSNRNTYLHWYQQKPGQAPRLLIYKVSNRFSGVPDRFSGSGSGTDFTLKISRVEAEDVGVYYCGQGTQVPYTFGQGTKLEIKRTVAAPSVFIFPPSDEQLKSGTASVVCLLNNFYPREAKVQWKVDNALQSGNSQESVTEQDSKDSTYSLSSTLTLSKADYEKHKVYACEVTHQGLSSPVTKSFNRGEC
B3: NHS6f52 (antibody)
chain 1: QVQLVESGGGLVQPGRSLRLSCAASGFTFSNAWMHWVRQAPGKGLEWVAQIKDKSNNYATYYAESVKGRFTISRDDSKNSIYLQMNSLKTEDTAVYYCRYVHYAAYMLGLGYYGVDAWGQGTTVTVSSASTKGPSVFPLAPSSKSTSGGTAALGCLVKDYFPEPVTVSWNSGALTSGVHTFPAVLQSSGLYSLSSVVTVPSSSLGTQTYICNVNHKPSNTKVDKKVEPKSCDKTHTCPPCPAPEAAGGPSVFLFPPKPKDTLMISRTPEVTCVVVDVSHEDPEVKFNWYVDGVEVHNAKTKPREEQYASTYRVVSVLTVLHQDWLNGKEYKCKVSNKALPAPIEKTISKAKGQPREPQVYTLPPSRCELTKNQVSLSCAVKGFYPSDIAVEWESNGQPENNYKTTPPVLDSDGSFFLVSKLTVDKSRWQQGNVFSCSVMHEALHNHYTQKSLSLSPDYKDDDDK
chain 2: EPKSSDKTHTCPPCPAPELLGGPSVFLFPPKPKDTLMISRTPEVTCVVVDVSHEDPEVKFNWYVDGVEVHNAKTKPREEQYNSTYRVVSVLTVLHQDWLNGKEYKCKVSNKALPAPIEKTISKAKGQPREPQVCTLPPSRDELTKNQVSLWCLVKGFYPSDIAVEWESNGQPENNYKTTPPVLDSDGSFFLYSKLTVDKSRWQQGNVFSCSVMHEALHNRYTQKSLSLSP
chain 3: DIVMTQSPLSLPVTPGEPASISCRSSQSLVHSNRNTYLHWYQQKPGQAPRLLIYKVSNRFSGVPDRFSGSGSGTDFTLKISRVEAEDVGVYYCGQGTQVPYTFGQGTKLEIKRTVAAPSVFIFPPSDEQLKSGTASVVCLLNNFYPREAKVQWKVDNALQSGNSQESVTEQDSKDSTYSLSSTLTLSKADYEKHKVYACEVTHQGLSSPVTKSFNRGEC
B4: NHS6f50 (antibody)
chain 1: QVQLVESGGGLVQPGRSLRLSCAASGFTFSNAWMHWVRQAPGKGLEWVAQIKDKSNNYATYYAESVKGRFTISRDDSKNSIYLQMNSLKTEDTAVYYCRYVHYAALTGGLGYYGVDAWGQGTTVTVSSASTKGPSVFPLAPSSKSTSGGTAALGCLVKDYFPEPVTVSWNSGALTSGVHTFPAVLQSSGLYSLSSVVTVPSSSLGTQTYICNVNHKPSNTKVDKKVEPKSCDKTHTCPPCPAPEAAGGPSVFLFPPKPKDTLMISRTPEVTCVVVDVSHEDPEVKFNWYVDGVEVHNAKTKPREEQYASTYRVVSVLTVLHQDWLNGKEYKCKVSNKALPAPIEKTISKAKGQPREPQVYTLPPSRCELTKNQVSLSCAVKGFYPSDIAVEWESNGQPENNYKTTPPVLDSDGSFFLVSKLTVDKSRWQQGNVFSCSVMHEALHNHYTQKSLSLSPDYKDDDDK
chain 2: EPKSSDKTHTCPPCPAPELLGGPSVFLFPPKPKDTLMISRTPEVTCVVVDVSHEDPEVKFNWYVDGVEVHNAKTKPREEQYNSTYRVVSVLTVLHQDWLNGKEYKCKVSNKALPAPIEKTISKAKGQPREPQVCTLPPSRDELTKNQVSLWCLVKGFYPSDIAVEWESNGQPENNYKTTPPVLDSDGSFFLYSKLTVDKSRWQQGNVFSCSVMHEALHNRYTQKSLSLSP
chain 3: DIVMTQSPLSLPVTPGEPASISCRSSQSLVHSNRNTYLHWYQQKPGQAPRLLIYKVSNRFSGVPDRFSGSGSGTDFTLKISRVEAEDVGVYYCGQGTQVPYTFGQGTKLEIKRTVAAPSVFIFPPSDEQLKSGTASVVCLLNNFYPREAKVQWKVDNALQSGNSQESVTEQDSKDSTYSLSSTLTLSKADYEKHKVYACEVTHQGLSSPVTKSFNRGEC
B5: NNS6f54 (antibody)
chain 1: QVQLVESGGGLVQPGRSLRLSCAASGFTFSNAWMHWVRQAPGKGLEWVAQIKDKSNNYATYYAESVKGRFTISRDDSKNSIYLQMNSLKTEDTAVYYCRYVHYAAFEWVGWYYGVDAWGQGTTVTVSSASTKGPSVFPLAPSSKSTSGGTAALGCLVKDYFPEPVTVSWNSGALTSGVHTFPAVLQSSGLYSLSSVVTVPSSSLGTQTYICNVNHKPSNTKVDKKVEPKSCDKTHTCPPCPAPEAAGGPSVFLFPPKPKDTLMISRTPEVTCVVVDVSHEDPEVKFNWYVDGVEVHNAKTKPREEQYASTYRVVSVLTVLHQDWLNGKEYKCKVSNKALPAPIEKTISKAKGQPREPQVYTLPPSRCELTKNQVSLSCAVKGFYPSDIAVEWESNGQPENNYKTTPPVLDSDGSFFLVSKLTVDKSRWQQGNVFSCSVMHEALHNHYTQKSLSLSPDYKDDDDK
chain 2: EPKSSDKTHTCPPCPAPELLGGPSVFLFPPKPKDTLMISRTPEVTCVVVDVSHEDPEVKFNWYVDGVEVHNAKTKPREEQYNSTYRVVSVLTVLHQDWLNGKEYKCKVSNKALPAPIEKTISKAKGQPREPQVCTLPPSRDELTKNQVSLWCLVKGFYPSDIAVEWESNGQPENNYKTTPPVLDSDGSFFLYSKLTVDKSRWQQGNVFSCSVMHEALHNRYTQKSLSLSP
chain 3: DIVMTQSPLSLPVTPGEPASISCRSSQSLVHSNRNTYLHWYQQKPGQAPRLLIYKVSNRFSGVPDRFSGSGSGTDFTLKISRVEAEDVGVYYCGQGTQVPYTFGQGTKLEIKRTVAAPSVFIFPPSDEQLKSGTASVVCLLNNFYPREAKVQWKVDNALQSGNSQESVTEQDSKDSTYSLSSTLTLSKADYEKHKVYACEVTHQGLSSPVTKSFNRGEC
B6: NNS6f51 (antibody)
chain 1: QVQLVESGGGLVQPGRSLRLSCAASGFTFSNAWMHWVRQAPGKGLEWVAQIKDKSNNYATYYAESVKGRFTISRDDSKNSIYLQMNSLKTEDTAVYYCRYVHYAAGFLVLWYYGVDAWGQGTTVTVSSASTKGPSVFPLAPSSKSTSGGTAALGCLVKDYFPEPVTVSWNSGALTSGVHTFPAVLQSSGLYSLSSVVTVPSSSLGTQTYICNVNHKPSNTKVDKKVEPKSCDKTHTCPPCPAPEAAGGPSVFLFPPKPKDTLMISRTPEVTCVVVDVSHEDPEVKFNWYVDGVEVHNAKTKPREEQYASTYRVVSVLTVLHQDWLNGKEYKCKVSNKALPAPIEKTISKAKGQPREPQVYTLPPSRCELTKNQVSLSCAVKGFYPSDIAVEWESNGQPENNYKTTPPVLDSDGSFFLVSKLTVDKSRWQQGNVFSCSVMHEALHNHYTQKSLSLSPDYKDDDDK
chain 2: EPKSSDKTHTCPPCPAPELLGGPSVFLFPPKPKDTLMISRTPEVTCVVVDVSHEDPEVKFNWYVDGVEVHNAKTKPREEQYNSTYRVVSVLTVLHQDWLNGKEYKCKVSNKALPAPIEKTISKAKGQPREPQVCTLPPSRDELTKNQVSLWCLVKGFYPSDIAVEWESNGQPENNYKTTPPVLDSDGSFFLYSKLTVDKSRWQQGNVFSCSVMHEALHNRYTQKSLSLSP
chain 3: DIVMTQSPLSLPVTPGEPASISCRSSQSLVHSNRNTYLHWYQQKPGQAPRLLIYKVSNRFSGVPDRFSGSGSGTDFTLKISRVEAEDVGVYYCGQGTQVPYTFGQGTKLEIKRTVAAPSVFIFPPSDEQLKSGTASVVCLLNNFYPREAKVQWKVDNALQSGNSQESVTEQDSKDSTYSLSSTLTLSKADYEKHKVYACEVTHQGLSSPVTKSFNRGEC

This experiment has as its target biotinylated CD3 epsilon epitope peptide. Nature of the experiment: SPR, one-arm Ab. In general terms: SPR reads the build-up and loss of mass on a sensor chip optically.
As usually defined, the Kd is the constant that tells how readily two partners part at equilibrium. B1 returned a dissociation constant Kd of 31 nM.
Under B2 stands 31 nM; under B3, 52 nM; under B4, 71 nM.
B5 returned a Kd of 29 nM.
With B6 the figure was 31 nM.

Values taken from patent US20200377595A1 (Chugai, published 2020).
